Data: US20100003258A1 (AVEO PHARMACEUTICALS, published 2010)

What was measured:
[1] = biological target: T1, recombinant human FGFR3 IIIb Fc fusion protein (human, UniProt P22607-2 23-377, limits assumed); experiment: SPR (Biacore T100), antibody captured on anti-mouse Ig, rhFGFR3 IIIb Fc as analyte, 25 C
T1 construct: Bought reagent; the IIIb splice isoform is meant; also called rhFGFR3 IIIb Fc; hFGFR3 IIIb; not shown: Fc fragment (removable by Factor Xa, detected with anti-human IgG)
T1 sequence (looked up): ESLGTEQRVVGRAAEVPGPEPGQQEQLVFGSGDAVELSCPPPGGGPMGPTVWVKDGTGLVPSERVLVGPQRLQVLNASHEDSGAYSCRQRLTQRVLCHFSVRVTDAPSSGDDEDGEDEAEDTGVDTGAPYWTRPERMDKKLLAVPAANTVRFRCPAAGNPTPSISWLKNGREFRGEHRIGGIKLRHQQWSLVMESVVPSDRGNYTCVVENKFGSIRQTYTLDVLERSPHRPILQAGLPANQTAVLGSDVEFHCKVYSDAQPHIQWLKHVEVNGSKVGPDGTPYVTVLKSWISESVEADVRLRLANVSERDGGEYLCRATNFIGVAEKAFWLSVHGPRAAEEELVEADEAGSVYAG
Protocol: (§1) The binding affinities and kinetics of interaction of the monoclonal antibodies (15D8, 27H2, 2G4, and 4E7(7D12)) produced in Example 1 against recombinant human FGFR3 (IIIb and IIIc isoforms) Fc fusion protein (rhFGFR3 IIIb Fc or rhFGFR3 IIIc Fc) were measured by surface plasmon resonance using a Biacore™ T100 (Biacore) instrument.
(§2) Rabbit anti-mouse immunoglobulins (Biacore, Catalog No. BR-1005-14) were immobilized on carboxymethylated dextran CM4 sensor chips (Biacore, Catalog No. BR-1005-34) by amine coupling (Biacore, Catalog No. BR-1000-50) using a standard coupling protocol according to manufacturer's instructions.
(§3) The antibodies were captured in an individual flow cell at a flow rate of 10 μl/min. Injection time was varied for each antibody to yield approximately 40-50 RU of antibody captured for each cycle. Buffer or rhFGFR3 IIIb Fc (R&D Systems, Catalog No. 1264-FR-050) or rhFGFR3 IIIc Fc (R&D Systems, Catalog No. 766-FR-050) diluted in running buffer was injected sequentially over a reference surface (no antibody captured) and the active surface (antibody to be tested) for 300 sec at 60 μl/min. The dissociation phase was monitored for 30 minutes. The surface was then regenerated with two 60-seconds injection of 10 mM Glycine-HCl, pH 1.7 (made from Glycine pH 1.5 (Biacore, Catalog No. BR-1003-54) and pH 2.0 (Biacore, Catalog No. BR-1003-55)) at a flow rate of 60 μl/min. rhFGFR3 Fc concentrations tested were 0.62 nM to 40 nM.

[2] = biological target: T2, recombinant human FGFR3 IIIc Fc fusion protein (human, UniProt P22607 23-375); experiment: SPR (Biacore T100), antibody captured on anti-mouse Ig, rhFGFR3 IIIc Fc as analyte, 25 C
T2 construct: Bought reagent; also called rhFGFR3 IIIc Fc; not shown: Fc fragment (removable by Factor Xa)
T2 sequence (looked up): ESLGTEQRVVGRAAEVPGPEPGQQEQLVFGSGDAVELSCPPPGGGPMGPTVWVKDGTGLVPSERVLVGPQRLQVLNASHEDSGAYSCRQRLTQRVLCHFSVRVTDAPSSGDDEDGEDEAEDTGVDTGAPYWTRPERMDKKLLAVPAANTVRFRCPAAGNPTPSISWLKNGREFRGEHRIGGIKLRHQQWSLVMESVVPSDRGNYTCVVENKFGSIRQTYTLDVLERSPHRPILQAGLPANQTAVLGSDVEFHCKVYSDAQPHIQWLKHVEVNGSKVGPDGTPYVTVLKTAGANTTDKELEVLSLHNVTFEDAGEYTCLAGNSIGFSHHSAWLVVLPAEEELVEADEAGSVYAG
Protocol: as §1, §2, §3

[3] = biological target: T1, recombinant human FGFR3 IIIb Fc fusion …; experiment: SPR (Biacore T100), antibody captured on anti-mouse Ig, rhFGFR3 IIIb Fc as analyte, 37 C
Protocol: as §1, §2, §3

[4] = biological target: T1, recombinant human FGFR3 IIIb Fc fusion …; experiment: ECL competition assay: inhibition of rhFGFR3 IIIb Fc binding to coated FGF1 (competitor FGF1)
Protocol: (§4) The antibodies were tested by ECL (Electrochemiluminescence) assay for inhibition of hFGFR3 IIIB binding to FGF-1. […] The plates then were washed 3 times with PBS and blocked with 200 μl of PBS containing 5% BSA (Sera Care Life Sciences, Catalog No. AP-4510-80) and 5 μg/mL heparin (Sigma, Catalog No. H4784) for 1 hour at room temperature. The antibodies (concentration range: 0.029-30 μg/mL) were incubated for 1 hour at room temperature with 1.7 μg/mL rhFGFR3 IIIb Fc (R&D Systems, Catalog No. 1264-FR-050) and 5 μg/mL heparin. After washing the plates 3 times with PBS, 25 μl of the antibody-receptor mixture was added to the plates for another hour at room temperature with agitation. The plates were washed three times with PBS and incubated with 25 μl of 1 μg/mL ST-anti-human IgG antibody (Meso Scale Discovery, Catalog No. R32AJ-1) for 1 hour at room temperature with agitation. The plates then were washed 3 times with PBS, and 150 μl of 1× read buffer (Meso Scale Discovery, Catalog No. R92TC-1) was added to each well before the plates were analyzed on a Sector Imager 2400 (Meso Scale Discovery) instrument.

[5] = biological target: T1, recombinant human FGFR3 IIIb Fc fusion …; experiment: ECL competition assay: inhibition of rhFGFR3 IIIb Fc binding to coated FGF1 (competitor FGF1); 15D8 IgG1, not Fab; average of n = 3
Protocol: as §4

B1: anti-FGFR3 monoclonal antibody 15D8 (antibody, mouse IgG1, kappa)
heavy: EIQLQQSGPELVKPGASVKVSCKASGYAFTSYNMYWVKQSHGKSLEWIGYIDPYNGGTSYNQKFKGKATLTVDKSSSTAYMHLNSLTSEDSAVYYCAREGGNYEAWFAYWGQGTLVTVSAAKTTPPSVYPLAPGSAAQTNSMVTLGCLVKGYFPEPVTVTWNSGSLSSGVHTFPAVLQSDLYTLSSSVTVPSSTWPSETVTCNVAHPASSTKVDKKIVPRDCGCKPCICTVPEVSSVFIFPPKPKDVLTITLTPKVTCVVVDISKDDPEVQFSWFVDDVEVHTAQTQPREEQFNSTFRSVSELPIMHQDWLNGKEFKCRVNSAAFPAPIEKTISKTKGRPKAPQVYTIPPPKEQMAKDKVSLTCMITDFFPEDITVEWQWNGQPAENYKNTQPIMDTDGSYFVYSKLNVQKSNWEAGNTFTCSVLHEGLHNHHTEKSLSHSPGK
light: QIVLTQSPALMSASPGEKVTMTCSASSSVSYMYWYQQKPRSSPKPWIYLTSYLASGVPARFSGSGSGTSYSLTISSMEAEDAATYYCQQWSSYPLTFGAGTKLELKRADAAPTVSIFPPSSEQLTSGGASVVCFLNNFYPKDINVKWKIDGSERQNGVLNSWTDQDSKDSTYSMSSTLTLTKDEYERHNSYTCEATHKTSTSPIVKSFNRNEC
notes: also called 15D8 IgG1; murine antibody 15D8
Binder B1 has a Kd [1] of 2.6 nM, a koff [1] of 0.00033 s⁻¹ and a kon [1] of 200000 M⁻¹ s⁻¹. For the same binder, the Kd [2] was 2.2 nM, the koff [2] was 0.0002 s⁻¹ and the kon [2] was 93000 M⁻¹ s⁻¹. The Kd [3] was 3.2 nM, the koff [3] was 0.0003 s⁻¹ and the kon [3] was 94000 M⁻¹ s⁻¹. For the same binder, the “Maximum Neutralization (%)” value [4] was 80.5% and the IC50 [5] was 15.4 nM.
